B1: Glucocorticoid receptor, residues 419 to 494; numbered along this chain, P04150 (parent)
chain: KLCLVCSDEASGCHYGVLTCGSCKVFFKRAVEGQHNYLCAGRNDCIIDKIRRKNCPACRYRKCLQAGMNLEARKTK

± gives the uncertainty stated by the source.

Variants of B1 are the subject of the data set. As to the kind of experiment: abundance fitness (aPCA) (normalised: wild type 0, dead -1); higher = more abundant; growth selection in yeast, the domain comes from the species named. The settings on record: Homo sapiens.
As to ILCLVCSDEASGCHYGVLTCGSCKVFFKRAVEGQHNYLCAGRNDCIIDKIRRKNCPACRYRKCLQAGMNLEARKTK [K1I], the abundance fitness was -0.143 ± 0.1. With ALCLVCSDEASGCHYGVLTCGSCKVFFKRAVEGQHNYLCAGRNDCIIDKIRRKNCPACRYRKCLQAGMNLEARKTK [K1A], the abundance fitness was -0.066 ± 0.055. Consider LLCLVCSDEASGCHYGVLTCGSCKVFFKRAVEGQHNYLCAGRNDCIIDKIRRKNCPACRYRKCLQAGMNLEARKTK [K1L], for which the abundance fitness is -0.236 ± 0.058. For KLCLVCSDEASGCHYGVLTCGSCKVFFKRAVEGQHNYLCWGRNDCIIDKIRRKNCPACRYRKCLQAGMNLEARKTK [A40W] the value was -0.079 ± 0.041; for KLCLVCSDEASGCHYGVLTCGSCKVFFKRAVEGQHNYLCAMRNDCIIDKIRRKNCPACRYRKCLQAGMNLEARKTK [G41M], -0.004 ± 0.052; for KLCLVCSDEASGCHYGVLTCGSCKVFFKRAVEGQHNYLCARRNDCIIDKIRRKNCPACRYRKCLQAGMNLEARKTK [G41R], 0.02 ± 0.03. The value for KLCLVCSDEASGTHYGVLTCGSCKVFFKRAVEGQHNYLCAGRNDCIIDKIRRKNCPACRYRKCLQAGMNLEARKTK [C13T] was 0.003 ± 0.038. As to KLCLVCSDEASGCHYGVLTCGSCKVFFKRAVEGQHNYLIAGRNDCIIDKIRRKNCPACRYRKCLQAGMNLEARKTK [C39I], the abundance fitness is -1 ± 0.3. Take KLCLVCSDEASGCHYGVLTCGSCKVFFKRAVEGQHNYLTAGRNDCIIDKIRRKNCPACRYRKCLQAGMNLEARKTK [C39T]: the abundance fitness was -0.553 ± 0.21. Turning to KLCLFCSDEASGCHYGVLTCGSCKVFFKRAVEGQHNYLCAGRNDCIIDKIRRKNCPACRYRKCLQAGMNLEARKTK [V5F], the abundance fitness is -0.874 ± 0.24.

Turning to KLCLVCSDEASGCHYGVLTCGSCKVFFKRAVEGQHNYLCAGRNDCINDKIRRKNCPACRYRKCLQAGMNLEARKTK [I47N], the abundance fitness was -0.164 ± 0.1. The value for KLCLVCSDEASGCHYGVLTCGSCKVFFKRAVEGQHNYLCAGRNDCIWDKIRRKNCPACRYRKCLQAGMNLEARKTK [I47W] was -0.542 ± 0.058; that for KLCLVCSDEASGCHYGVLTCGSCKVFFKRAVEGQHNYLCAGRNDCIIDKIRRKNCQACRYRKCLQAGMNLEARKTK [P56Q] was -0.001 ± 0.045; that for KLCLVCSDEASGCHYGVLTCGSCKVFFKRAVEGQHNYLCAGRNDCIIDKIRRKNCTACRYRKCLQAGMNLEARKTK [P56T] was -0.06 ± 0.044. KLCLVCSDEASGCHYGVLTCGSCKVFFKRAVEGQHNYLCAGRNDCIIDKIRRKNCPLCRYRKCLQAGMNLEARKTK [A57L]: the abundance fitness is -0.582 ± 0.048.

For KLCLVCSDEASGCHYGVLTCGSCKVFFKRAVENQHNYLCAGRNDCIIDKIRRKNCPACRYRKCLQAGMNLEARKTK [G33N], the abundance fitness turned out to be 0.115 ± 0.1.

On to KLCLVCMDEASGCHYGVLTCGSCKVFFKRAVEGQHNYLCAGRNDCIIDKIRRKNCPACRYRKCLQAGMNLEARKTK [S7M], for which the abundance fitness is -0.06 ± 0.051. As to KLCLVCSDEASGCHYGVLTCGSCKVFFKRAVEGQHNYLCAGRNDCIIDKIRRKNCPAPRYRKCLQAGMNLEARKTK [C58P], the abundance fitness was -0.842 ± 0.13. Consider KLCLVCSDEASGCHYGVLTCGSCKVFFKRAVEGQHNYLCAGVNDCIIDKIRRKNCPACRYRKCLQAGMNLEARKTK [R42V], for which the abundance fitness turned out to be 0.033 ± 0.036. Regarding KLCLVCSDEASGCHYGVLTCGSCKVFFKRAVEGQHNYLCAGMNDCIIDKIRRKNCPACRYRKCLQAGMNLEARKTK [R42M], the abundance fitness is -0.024 ± 0.049.

For KLCLVCSDEASGCHYGVLTCGSCKVFFKRAVEGQHNYLCAGRNDCIIDKIRRKNCPACRYRKCLWAGMNLEARKTK [Q65W], the abundance fitness is -0.063 ± 0.042.

For KLCLVCSDEASGCHYGVLTCGSCKVFFKRAVEGQHNYLCAGRNDCIIDKIRRKNCPACRYRKCLCAGMNLEARKTK [Q65C], the abundance fitness was -0.111 ± 0.05. For the variant KLCLVCSDEASGCHYGVLTCGSCKVFFKRAVEGQHNYLCAGRNDCIIDKIRRKNCPACRYRKCLLAGMNLEARKTK [Q65L], the abundance fitness was -0.035 ± 0.035. KLCLVCSDEASGCHYGVLTCGSRKVFFKRAVEGQHNYLCAGRNDCIIDKIRRKNCPACRYRKCLQAGMNLEARKTK [C23R]: the abundance fitness is -0.056 ± 0.36. Regarding KLCLVCSDEASGCHYGVLTCGSCKVFFKRAVEGQHNYLCAGRNDCIIDKIRRKNCPACRYDKCLQAGMNLEARKTK [R61D], the abundance fitness was found to be 0.016 ± 0.064. KLCLVCSDEASGCHYGVLTCGSCKVFFKRAVEGQHNYLCAGRNDCIIDKIRRKNCPACRYKKCLQAGMNLEARKTK [R61K]: the abundance fitness is -0.017 ± 0.05. Consider KLCLVCSDEASGCHYGVLTCGSCKVFFKRAVEGQSNYLCAGRNDCIIDKIRRKNCPACRYRKCLQAGMNLEARKTK [H35S], for which the abundance fitness is -0.114 ± 0.04. For KLCLVCSDEASGCHYGVLRCGSCKVFFKRAVEGQHNYLCAGRNDCIIDKIRRKNCPACRYRKCLQAGMNLEARKTK [T19R], the abundance fitness is -0.929 ± 0.099. With KLCLVCSDEASGCHYGVLMCGSCKVFFKRAVEGQHNYLCAGRNDCIIDKIRRKNCPACRYRKCLQAGMNLEARKTK [T19M], the abundance fitness was -0.176 ± 0.059. For KLCLVCSDEASGCHYGVLTCGSCKVFFKRAVEGQHNYLCAGRNDCIIDKIRRKNCPACRYRKCLQVGMNLEARKTK [A66V] the value was 0.021 ± 0.033; for KLCLVCSDEASGCHYGVLTCGSCKVFFKRAVEGQHNYLCAGRNDCIIDKIRRKNCPACRYRNCLQAGMNLEARKTK [K62N], -0.031 ± 0.081; for KLCLVCSDEASGCHYGVLTCGSCKVFFKRAVEGQHNYLCAGRNDCIIDKIRRKNCPACRYRKCLQAGMNLEARKNK [T75N], 0.014 ± 0.074. The value for KLCLVCSDEASGCHYGVLTCGSCKVFFKRAVEGQHNYLCAGRNDCIIDKIRRKNCPACRYRKCLQAGMNLEARKFK [T75F] was 0.064 ± 0.064; that for KLCLVCSDEASGCHYGVLTCGSCKVLFKRAVEGQHNYLCAGRNDCIIDKIRRKNCPACRYRKCLQAGMNLEARKTK [F26L] was -0.655 ± 0.075; that for KLCLVCSDEASGCHYGVLTCGSCKVEFKRAVEGQHNYLCAGRNDCIIDKIRRKNCPACRYRKCLQAGMNLEARKTK [F26E] was -0.891 ± 0.12. KLCLVCSDEASGCHLGVLTCGSCKVFFKRAVEGQHNYLCAGRNDCIIDKIRRKNCPACRYRKCLQAGMNLEARKTK [Y15L]: the abundance fitness was -0.164 ± 0.037.

Values taken from the Human Domainome abundance scans (Beltran et al. 2025).
